Source: paper PMC9482650, “Quantitative fragmentomics allow affinity mapping of interactomes” (Nature Communications, 2022)
Blank lines part the entries; values can stand above or below the binder they belong to.

What was measured:
Assay in all cases: holdup assay
Set-up in all cases: key: below the threshold = too weak to quantify, mostly under pKd 3.1 to 4
AHNAK1, Q09666 = target: AHNAK1, Q09666
APBA2_2, Q99767 = target: T1, APBA2_2, Q99767
T1 sequence (Q99767 654-744, limits assumed, looked up): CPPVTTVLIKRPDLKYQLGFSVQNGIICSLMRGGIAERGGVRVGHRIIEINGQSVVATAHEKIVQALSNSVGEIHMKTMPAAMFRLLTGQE

ARHGAP21, Q5T5U3 = target: T2, ARHGAP21, Q5T5U3
T2 sequence (Q5T5U3 45-169, limits assumed, looked up): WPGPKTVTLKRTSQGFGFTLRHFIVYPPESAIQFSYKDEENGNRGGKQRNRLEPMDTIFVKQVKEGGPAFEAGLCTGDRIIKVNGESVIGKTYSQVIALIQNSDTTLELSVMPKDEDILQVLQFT

ARHGEF11, O15085 = target: T3, ARHGEF11, O15085
T3 sequence (O15085 42-136, limits assumed, looked up): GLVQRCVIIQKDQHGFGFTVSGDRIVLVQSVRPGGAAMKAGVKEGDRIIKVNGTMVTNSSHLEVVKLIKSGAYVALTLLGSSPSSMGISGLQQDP

ARHGEF12, Q9NZN5-2 = target: ARHGEF12, Q9NZN5-2
Chain of ARHGEF12, Q9NZN5-2 (Q9NZN5 other isoform, or with tags, fused parts or gaps): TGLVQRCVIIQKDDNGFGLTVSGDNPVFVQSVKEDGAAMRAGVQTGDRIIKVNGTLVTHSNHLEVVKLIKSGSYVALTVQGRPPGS

DFNB31_1, Q9P202 = target: T4, DFNB31_1, Q9P202
T4 sequence (Q9P202 135-233, limits assumed, looked up): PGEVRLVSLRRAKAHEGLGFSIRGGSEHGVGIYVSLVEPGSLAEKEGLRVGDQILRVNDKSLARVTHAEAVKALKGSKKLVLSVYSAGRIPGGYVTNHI

DFNB31_2, Q9P202 = target: T5, DFNB31_2, Q9P202
T5 sequence (Q9P202 274-371, limits assumed, looked up): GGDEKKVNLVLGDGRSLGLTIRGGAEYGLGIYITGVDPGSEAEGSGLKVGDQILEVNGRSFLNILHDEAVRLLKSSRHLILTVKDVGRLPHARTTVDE

DFNB31_3, Q9P202 = target: T6, DFNB31_3, Q9P202
T6 sequence (Q9P202 811-907, limits assumed, looked up): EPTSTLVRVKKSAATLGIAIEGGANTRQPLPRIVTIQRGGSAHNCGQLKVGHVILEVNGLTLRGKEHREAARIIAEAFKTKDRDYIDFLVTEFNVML

DLG1_2, Q12959 = target: DLG1_2, Q12959
Chain of DLG1_2, Q12959 (Q12959 314-412): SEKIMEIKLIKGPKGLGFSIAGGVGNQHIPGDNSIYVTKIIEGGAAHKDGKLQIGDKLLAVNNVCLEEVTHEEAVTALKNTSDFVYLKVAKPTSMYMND

DLG3_2, Q92796 = target: T7, DLG3_2, Q92796
T7 sequence (Q92796 221-321, limits assumed, looked up): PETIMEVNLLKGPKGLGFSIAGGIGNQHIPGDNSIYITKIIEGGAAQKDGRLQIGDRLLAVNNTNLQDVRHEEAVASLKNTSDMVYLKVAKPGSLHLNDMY

GIPC2, Q8TF65 = target: GIPC2, Q8TF65
Chain of GIPC2, Q8TF65 (Q8TF65 112-203): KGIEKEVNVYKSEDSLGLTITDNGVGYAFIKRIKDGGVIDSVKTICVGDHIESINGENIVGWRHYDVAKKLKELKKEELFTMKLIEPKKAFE

GORASP1, Q9BQQ3 = target: GORASP1, Q9BQQ3
Chain of GORASP1, Q9BQQ3 (Q9BQQ3 1-208): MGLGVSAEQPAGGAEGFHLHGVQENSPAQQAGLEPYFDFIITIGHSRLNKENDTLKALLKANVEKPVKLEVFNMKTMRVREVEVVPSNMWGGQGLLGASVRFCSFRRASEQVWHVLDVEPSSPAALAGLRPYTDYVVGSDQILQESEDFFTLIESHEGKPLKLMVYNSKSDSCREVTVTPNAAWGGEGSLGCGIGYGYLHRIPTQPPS

GRIP2_3, Q9C0E4 = target: GRIP2_3, Q9C0E4
Chain of GRIP2_3, Q9C0E4 (Q9C0E4 238-339): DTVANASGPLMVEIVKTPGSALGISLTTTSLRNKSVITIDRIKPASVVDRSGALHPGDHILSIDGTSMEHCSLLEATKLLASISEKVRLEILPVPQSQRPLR

GRIP2_6, Q9C0E4 = target: GRIP2_6, Q9C0E4
Chain of GRIP2_6, Q9C0E4 (Q9C0E4 648-740): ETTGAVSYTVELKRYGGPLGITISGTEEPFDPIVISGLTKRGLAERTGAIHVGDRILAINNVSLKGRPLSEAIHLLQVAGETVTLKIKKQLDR

GRIP2_7, Q9C0E4 = target: GRIP2_7, Q9C0E4
Chain of GRIP2_7, Q9C0E4 (Q9C0E4 934-1023): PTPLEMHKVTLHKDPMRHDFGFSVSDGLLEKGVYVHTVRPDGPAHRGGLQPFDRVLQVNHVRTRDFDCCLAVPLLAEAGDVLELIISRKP

HTRA3, P83110 = target: T8, HTRA3, P83110
T8 sequence (P83110 354-453, limits assumed, looked up): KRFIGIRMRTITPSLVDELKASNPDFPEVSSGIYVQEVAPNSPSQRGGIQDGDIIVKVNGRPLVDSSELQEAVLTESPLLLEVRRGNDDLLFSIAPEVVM

LRRC7, Q96NW7 = target: T9, LRRC7, Q96NW7
T9 sequence (Q96NW7 1440-1537, limits assumed, looked up): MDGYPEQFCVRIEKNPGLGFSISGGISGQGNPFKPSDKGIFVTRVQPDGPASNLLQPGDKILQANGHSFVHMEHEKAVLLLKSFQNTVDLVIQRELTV

MAGI2_2, Q86UL8 = target: MAGI2_2, Q86UL8
Chain of MAGI2_2, Q86UL8 (Q86UL8 410-522): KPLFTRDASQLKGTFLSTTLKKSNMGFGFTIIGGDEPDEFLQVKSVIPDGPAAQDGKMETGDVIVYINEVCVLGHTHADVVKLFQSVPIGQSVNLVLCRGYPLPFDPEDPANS

MAGI2_5, Q86UL8 = target: MAGI2_5, Q86UL8
Chain of MAGI2_5, Q86UL8 (Q86UL8 915-1017): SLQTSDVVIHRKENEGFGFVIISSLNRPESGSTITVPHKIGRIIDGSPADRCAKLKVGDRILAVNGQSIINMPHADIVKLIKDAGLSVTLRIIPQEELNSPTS

PCLO, Q9Y6V0 = target: T10, PCLO, Q9Y6V0
T10 sequence (Q9Y6V0 4491-4600, limits assumed, looked up): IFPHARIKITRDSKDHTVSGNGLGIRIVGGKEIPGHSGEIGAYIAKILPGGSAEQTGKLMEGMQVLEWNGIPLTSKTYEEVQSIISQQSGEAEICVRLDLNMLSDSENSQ

SYNJ2BP, P57105 = target: T11, SYNJ2BP, P57105
T11 sequence (P57105 8-110, limits assumed, looked up): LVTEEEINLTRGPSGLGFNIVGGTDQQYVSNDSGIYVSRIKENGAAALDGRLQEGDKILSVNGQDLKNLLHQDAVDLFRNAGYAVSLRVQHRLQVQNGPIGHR

TJP3_3, O95049 = target: T12, TJP3_3, O95049
T12 sequence (O95049 375-456, limits assumed, looked up): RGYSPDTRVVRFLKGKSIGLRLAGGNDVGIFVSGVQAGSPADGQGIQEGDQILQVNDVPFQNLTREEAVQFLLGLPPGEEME

TX1BP3, O14907 = target: T13, TX1BP3, O14907
T13 sequence (O14907 10-122, limits assumed, looked up): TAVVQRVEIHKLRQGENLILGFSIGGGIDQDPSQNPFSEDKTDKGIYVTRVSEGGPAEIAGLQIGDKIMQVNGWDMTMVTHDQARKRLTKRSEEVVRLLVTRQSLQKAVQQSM

[1] = plain residues with an end cap or a label only (N-terminal biotin on a linker: ahx)
[2] = plain residues with an end cap or a label only (N-terminal biotin on a linker: ttds)

Chain of AHNAK1, Q09666 (Q09666 4-100): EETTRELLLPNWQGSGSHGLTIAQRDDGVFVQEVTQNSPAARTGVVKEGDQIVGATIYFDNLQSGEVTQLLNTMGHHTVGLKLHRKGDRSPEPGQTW

Binder: NPDALPETLV [ARHGAP6, O43182]
pKd (AHNAK1, Q09666; [2]): below the threshold
pKd (APBA2_2, Q99767; [2]): below the threshold
pKd (ARHGAP21, Q5T5U3; [2]): below the threshold
pKd (ARHGEF11, O15085; [2]): 4.09
pKd (ARHGEF12, Q9NZN5-2; [2]): 3.85
pKd (DFNB31_1, Q9P202; [2]): 4.1
pKd (DFNB31_2, Q9P202; [2]): below the threshold
pKd (DFNB31_3, Q9P202; [2]): 4.1
pKd (DLG1_2, Q12959; [2]): 4.49
pKd (DLG3_2, Q92796; [2]): 4.18
pKd (GIPC2, Q8TF65; [2]): 3.49
pKd (GORASP1, Q9BQQ3; [2]): below the threshold
pKd (GRIP2_3, Q9C0E4; [2]): below the threshold
pKd (GRIP2_6, Q9C0E4; [2]): below the threshold
pKd (GRIP2_7, Q9C0E4; [2]): below the threshold
pKd (HTRA3, P83110; [2]): below the threshold
pKd (LRRC7, Q96NW7; [2]): below the threshold
pKd (MAGI2_2, Q86UL8; [2]): 4.1
pKd (MAGI2_5, Q86UL8; [2]): 4.45
pKd (PCLO, Q9Y6V0; [2]): below the threshold
pKd (SYNJ2BP, P57105; [2]): 4.06
pKd (TJP3_3, O95049; [2]): below the threshold
pKd (TX1BP3, O14907; [2]): below the threshold

Binder: QRPYRRESEI [KCNJ12, Q14500]
pKd (AHNAK1, Q09666; [2]): below the threshold
pKd (APBA2_2, Q99767; [2]): below the threshold
pKd (ARHGAP21, Q5T5U3; [2]): below the threshold
pKd (ARHGEF11, O15085; [2]): below the threshold
pKd (ARHGEF12, Q9NZN5-2; [2]): 3.65
pKd (DFNB31_1, Q9P202; [2]): 4.02
pKd (DFNB31_2, Q9P202; [2]): below the threshold
pKd (DFNB31_3, Q9P202; [2]): below the threshold
pKd (DLG1_2, Q12959; [2]): 4.61
pKd (DLG3_2, Q92796; [2]): 4.28
pKd (GIPC2, Q8TF65; [2]): below the threshold
pKd (GORASP1, Q9BQQ3; [2]): below the threshold
pKd (GRIP2_3, Q9C0E4; [2]): below the threshold
pKd (GRIP2_6, Q9C0E4; [2]): below the threshold
pKd (GRIP2_7, Q9C0E4; [2]): below the threshold
pKd (HTRA3, P83110; [2]): below the threshold
pKd (LRRC7, Q96NW7; [2]): below the threshold
pKd (MAGI2_2, Q86UL8; [2]): 4.21
pKd (MAGI2_5, Q86UL8; [2]): below the threshold
pKd (PCLO, Q9Y6V0; [2]): below the threshold
pKd (SYNJ2BP, P57105; [2]): 5.17
pKd (TJP3_3, O95049; [2]): below the threshold
pKd (TX1BP3, O14907; [2]): 4.64

Second part, the binder after the results:

pKd (AHNAK1, Q09666; [1]): below the threshold
pKd (APBA2_2, Q99767; [1]): below the threshold
pKd (ARHGAP21, Q5T5U3; [1]): below the threshold
pKd (ARHGEF11, O15085; [1]): below the threshold
pKd (ARHGEF12, Q9NZN5-2; [1]): below the threshold
pKd (DFNB31_1, Q9P202; [1]): 4.28
pKd (DFNB31_2, Q9P202; [1]): below the threshold
pKd (DFNB31_3, Q9P202; [1]): below the threshold
pKd (DLG1_2, Q12959; [1]): 4.75
pKd (DLG3_2, Q92796; [1]): 4.49
pKd (GIPC2, Q8TF65; [1]): below the threshold
pKd (GORASP1, Q9BQQ3; [1]): 4
pKd (GRIP2_3, Q9C0E4; [1]): below the threshold
pKd (GRIP2_6, Q9C0E4; [1]): below the threshold
pKd (GRIP2_7, Q9C0E4; [1]): 4.13
pKd (HTRA3, P83110; [1]): 5.51
pKd (LRRC7, Q96NW7; [1]): 4.94
pKd (MAGI2_2, Q86UL8; [1]): below the threshold
pKd (MAGI2_5, Q86UL8; [1]): below the threshold
pKd (PCLO, Q9Y6V0; [1]): below the threshold
pKd (SYNJ2BP, P57105; [1]): 5.04
pKd (TJP3_3, O95049; [1]): 4.73
pKd (TX1BP3, O14907; [1]): 4.92
Binder: AKPQPVDSWV [ARVCF, O00192]

pKd (AHNAK1, Q09666; [2]): below the threshold
pKd (APBA2_2, Q99767; [2]): below the threshold
pKd (ARHGAP21, Q5T5U3; [2]): below the threshold
pKd (ARHGEF11, O15085; [2]): below the threshold
pKd (ARHGEF12, Q9NZN5-2; [2]): below the threshold
pKd (DFNB31_1, Q9P202; [2]): 3.91
pKd (DFNB31_2, Q9P202; [2]): below the threshold
pKd (DFNB31_3, Q9P202; [2]): below the threshold
pKd (DLG1_2, Q12959; [2]): 5.18
pKd (DLG3_2, Q92796; [2]): 4.97
pKd (GIPC2, Q8TF65; [2]): below the threshold
pKd (GORASP1, Q9BQQ3; [2]): below the threshold
pKd (GRIP2_3, Q9C0E4; [2]): below the threshold
pKd (GRIP2_6, Q9C0E4; [2]): below the threshold
pKd (GRIP2_7, Q9C0E4; [2]): below the threshold
pKd (HTRA3, P83110; [2]): below the threshold
pKd (LRRC7, Q96NW7; [2]): below the threshold
pKd (MAGI2_2, Q86UL8; [2]): 3.72
pKd (MAGI2_5, Q86UL8; [2]): below the threshold
pKd (PCLO, Q9Y6V0; [2]): below the threshold
pKd (SYNJ2BP, P57105; [2]): 4.86
pKd (TJP3_3, O95049; [2]): below the threshold
pKd (TX1BP3, O14907; [2]): 4.49
Binder: GRLLGLETNV [ARHGEF26, Q96DR7]
